Test results taken from patent US20240141059A1 (Bristol-Myers Squibb, published 2024).
Where “and” joins values, the source holds several entries; their conditions need not be identical. Equal values may be shown once.

T1: N-hCD73-his (human, UniProt P21589 26-336, limits assumed)
T1 construct: monomeric in solution by SEC-MALS; also called N-terminal domain of hCD73
T1 sequence (looked up): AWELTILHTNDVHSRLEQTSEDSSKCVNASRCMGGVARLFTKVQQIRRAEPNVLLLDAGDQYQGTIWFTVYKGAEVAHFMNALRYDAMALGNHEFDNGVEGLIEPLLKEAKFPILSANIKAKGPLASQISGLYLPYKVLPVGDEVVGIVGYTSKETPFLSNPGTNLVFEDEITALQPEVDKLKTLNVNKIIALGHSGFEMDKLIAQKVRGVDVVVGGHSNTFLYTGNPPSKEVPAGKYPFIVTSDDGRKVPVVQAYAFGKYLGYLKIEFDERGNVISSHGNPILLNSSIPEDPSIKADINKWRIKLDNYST

T2: human CD73 on cells (human, UniProt P21589 27-549)
T2 sequence (looked up): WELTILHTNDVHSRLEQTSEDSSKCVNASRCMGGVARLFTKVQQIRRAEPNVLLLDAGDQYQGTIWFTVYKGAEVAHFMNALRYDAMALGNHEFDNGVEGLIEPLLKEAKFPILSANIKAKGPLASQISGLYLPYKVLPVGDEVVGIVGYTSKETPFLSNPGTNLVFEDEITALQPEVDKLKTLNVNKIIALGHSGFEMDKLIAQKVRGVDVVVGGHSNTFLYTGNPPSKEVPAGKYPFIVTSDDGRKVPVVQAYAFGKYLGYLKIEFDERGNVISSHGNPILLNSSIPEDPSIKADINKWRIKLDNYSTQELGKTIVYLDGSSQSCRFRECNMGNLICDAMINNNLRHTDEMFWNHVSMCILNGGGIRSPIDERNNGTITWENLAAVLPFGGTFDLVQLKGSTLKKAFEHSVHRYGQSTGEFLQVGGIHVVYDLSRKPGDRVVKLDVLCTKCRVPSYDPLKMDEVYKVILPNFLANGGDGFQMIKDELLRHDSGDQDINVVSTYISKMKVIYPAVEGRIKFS

T3: hCD73-his (human, UniProt P21589 26-546)
T3 construct: range 26-546; also called full length extracellular domain of human-CD73
T3 sequence (looked up): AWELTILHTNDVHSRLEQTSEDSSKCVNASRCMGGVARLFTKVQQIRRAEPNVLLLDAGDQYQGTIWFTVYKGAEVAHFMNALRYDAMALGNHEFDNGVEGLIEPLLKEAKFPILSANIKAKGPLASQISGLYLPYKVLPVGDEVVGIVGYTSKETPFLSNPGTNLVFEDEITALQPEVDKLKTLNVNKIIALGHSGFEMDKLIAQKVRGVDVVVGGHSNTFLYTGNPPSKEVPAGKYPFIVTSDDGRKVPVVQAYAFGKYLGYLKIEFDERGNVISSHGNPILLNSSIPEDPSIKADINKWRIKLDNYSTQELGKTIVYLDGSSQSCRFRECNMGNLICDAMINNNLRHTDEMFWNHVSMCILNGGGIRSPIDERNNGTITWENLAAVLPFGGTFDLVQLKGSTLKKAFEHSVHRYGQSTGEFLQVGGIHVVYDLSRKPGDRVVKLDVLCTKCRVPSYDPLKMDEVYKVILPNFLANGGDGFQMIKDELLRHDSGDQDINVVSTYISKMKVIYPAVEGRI


How the values were obtained:
hCD40-Fc = target: T4, hCD40-Fc (human, UniProt P25942 21-193); assay: SPR, hCD40-Fc immobilized, dAb-Fc analyte, avidity
T4 construct: Immobilized on the sensor chip; not shown: Fc part of hCD40-Fc not described

[1] = target: T5, purified human-CD40 monomer (human, UniProt P25942 21-193, limits assumed); assay: SPR, dAb-Fc on protein A, hCD40monomer analyte; second set
T5 construct: Soluble analyte; also called hCD40monomer

N-hCD73-his [2] = target: T1, N-hCD73-his; assay: SEC-MALS, target:mAb 2:1, 8 uM + 4 uM
Experimental: (§1) The structure and oligomeric state of CD73/antibody complexes in solution were examined by SEC-MALS and DLS.
(§2) The oligomeric state of CD73/antibody complexes were examined by size-exclusion chromatography coupled to an in-line multi-angle light scattering detector (SEC-MALS). Isocratic separations were performed on a Shodex PROTEIN KW-803 column connected to an Prominence Shimadzu UFLC in buffer containing 200 mM K₂HPO₄, 150 mM NaCl, pH 6.8, containing 0.02% Na azide (0.1 μm filtered) running at 0.5 mL/min. Samples were injected onto the column using a SIL-20AC Prominence Shimadzu® autosampler, and data were obtained from three online detectors connected in series: a Prominence SPD-20AD diode array UV/vis spectrophotometer followed by a Wyatt miniDAWN™ TREOS Multi-Angle Light Scattering Detector then a Wyatt Optilab T-rEX Refractive Index Detector® instrument. Data were collected and analyzed using Astra® (Wyatt) and Labsolutions® (Shimadzu) software.

human CD73 on cells [3] = target: T2, human CD73 on cells; assay: cell-based or functional assay
N-hCD73-his [4] = target: T1, N-hCD73-his; assay: DLS, target:mAb 2:1, 8 uM + 4 uM; unit from the text
Experimental: as §1
(§3) Dynamic light scattering (DLS) studies were performed on a Wyatt DynaPro® plate reader in 384 well plates at 25° C. Experimental parameters were 20 acquisitions of 5 s each per measurement, and measurements were recorded in quadruplicate, with the average and standard deviation reported. Intensity autocorrelation functions were fitted using the “Regularization” algorithm in the Dynamics® software (Wyatt Technologies®).

human CD73 on cells [5] = target: T2, human CD73 on cells; assay: cell-based or functional assay; remark: listed apart in the source
hCD73-his [6] = target: T3, hCD73-his; assay: DLS, target:mAb 1:1, 2.5 uM + 2.5 uM; unit from the text
Experimental: as §1, §3

hCD73-his [7] = target: T3, hCD73-his; assay: SEC-MALS, target:mAb 1:1, 2.5 uM + 2.5 uM
Experimental: as §1, §2

hCD73-his [8] = target: T3, hCD73-his; assay: DLS, target:mAb 1:1, 4 uM + 4 uM; unit from the text
Experimental: as §1, §3

N-hCD73-his [9] = target: T1, N-hCD73-his; assay: SPR, mAb captured on protein A
Experimental: The affinity of the antibodies for human CD73 was measured to determine whether the change of the constant region affects them. The affinities were determined by Surface Plasmon Resonance (SPR) as follows. […] For these experiments, protein A (Pierce) was immobilized to a density of 3000-4000 RU on flow cells 1˜4 of a CMS sensor chip (GE Healthcare) using standard ethyl(dimethylaminopropyl) carbodiimide (EDC)/N-hydroxysuccinimide (NHS) chemistry, with ethanolamine blocking, in a running buffer of 0.01 M HEPES pH 7.4, 0.15 M NaCl, 3 mM EDTA, 0.005% v/v tween 20. […] The running buffer for the kinetic experiments was 10 mM sodium phosphate, 130 mM sodium chloride, 0.05% tween 20, pH 7.1. The surfaces were regenerated after each cycle using two 30 s pulses of 10 mM glycine pH 1.5 at a flow rate of 30 μl/min. Sensogram data was double-referenced and then fitted to a 1:1 Langmuir model using Biacore® T100 evaluation software v2.0.4, to determine the association rate constant (ka), the dissociation rate constant (kd), and the equilibrium dissociation constant (KD).

hCD73-his [10] = target: T3, hCD73-his; assay: SEC-MALS, target:mAb 1:1, 4 uM + 4 uM
Experimental: as §1, §2

T5 sequence (P25942 21-193 limits assumed): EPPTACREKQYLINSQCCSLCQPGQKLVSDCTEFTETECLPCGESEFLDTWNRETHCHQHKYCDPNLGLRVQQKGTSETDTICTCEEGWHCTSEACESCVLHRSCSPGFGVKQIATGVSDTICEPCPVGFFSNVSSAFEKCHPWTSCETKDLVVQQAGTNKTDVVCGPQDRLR
T4 sequence (P25942 21-193): as the sequence (P25942 21-193 limits assumed) above

Row | Binder | KDapparent (hCD40-Fc) [nM] | MW Peak 1 (N-hCD73-his [2]) [kDa] | internalization EC50, Calu6 cells, 2 h (human CD73 on cells [3]) [nM] | internalization Ymax (% of 100 nM 11F11), Calu6 cells (human CD73 on cells [3]) [%] | Rh (N-hCD73-his [4]) [nm] | % internalization, Calu6 cells (human CD73 on cells [5]) [%] | % internalization, H228 cells (human CD73 on cells [5]) [%] | % internalization, H2030 cells (human CD73 on cells [5]) [%] | % internalization, HCC15 cells (human CD73 on cells [5]) [%] | internalization T1/2, Calu6 cells (human CD73 on cells [5]) [min] | internalization T1/2, H228 cells (human CD73 on cells [5]) [min] | internalization T1/2, H2030 cells (human CD73 on cells [5]) [min] | internalization T1/2, HCC15 cells (human CD73 on cells [5]) [min] | Rh (hCD73-his [6]) [nm] | MW Peak 1 (hCD73-his [7]) [kDa] | MW Peak 2 (hCD73-his [7]) [kDa] | Rh (hCD73-his [8]) [nm] | Kd (N-hCD73-his [9]) | koff (N-hCD73-his [9]) | kon (N-hCD73-his [9]) | further results
1 | 3h56-269-IgG1.3f (Fc fusion, dAb-Fc fusion protein) EVQLLESGGGLVQPGGSLRLSCAASGFTFRDYEMWWVRQAPGKGLERVSAINPQGTRTYYADSVKGRFTISRDNSKNTLYLQMNSLRAEDTAVYYCAKLPFRFSDRGQGTLVTVSSASTEPKSCDKTHTCPPCPAPEAEGAPSVFLFPPKPKDTLMISRTPEVTCVVVDVSHEDPEVKFNWYVDGVEVHNAKTKPREEQYNSTYRVVSVLTVLHQDWLNGKEYKCKVSNKALPAPIEKTISKAKGQPREPQVYTLPPSREEMTKNQVSLTCLVKGFYPSDIAVEWESNGQPENNYKTTPPVLDSDGSFFLYSKLTVDKSRWQQGNVFSCSVMHEALHNHYTQKSLSLSPGK | < 1 | – | – | – | – | – | – | – | – | – | – | – | – | – | – | – | – | – | – | – | Kd [1]: 9.8 nM; koff [1]: 0.00011 s⁻¹; kon [1]: 11000 M⁻¹ s⁻¹
2 | 3h56-269-IgG1.1f (Fc fusion, dAb-Fc fusion protein) EVQLLESGGGLVQPGGSLRLSCAASGFTFRDYEMWWVRQAPGKGLERVSAINPQGTRTYYADSVKGRFTISRDNSKNTLYLQMNSLRAEDTAVYYCAKLPFRFSDRGQGTLVTVSSASTEPKSCDKTHTCPPCPAPEAEGAPSVFLFPPKPKDTLMISRTPEVTCVVVDVSHEDPEVKFNWYVDGVEVHNAKTKPREEQYNSTYRVVSVLTVLHQDWLNGKEYKCKVSNKALPSSIEKTISKAKGQPREPQVYTLPPSREEMTKNQVSLTCLVKGFYPSDIAVEWESNGQPENNYKTTPPVLDSDGSFFLYSKLTVDKSRWQQGNVFSCSVMHEALHNHYTQKSLSLSPGK | < 1 | – | – | – | – | – | – | – | – | – | – | – | – | – | – | – | – | – | – | – | –
3 | CD73.10-IgG2-C219S (antibody, also called CD73.10-IgG2CS; CD73.10-Vh-hHC-IgG2-C219S) heavy: QVQLVESGGGVVQPGRSLRLSCAASGFTFSNYGMHWVRQAPGKGLEWVAVIWYDESNKYYPDSVKGRFTISRDNSKNTLYLQMNSLRAEDTAVYYCARGGSSWYPDSFDIWGQGTMVTVSSASTKGPSVFPLAPCSRSTSESTAALGCLVKDYFPEPVTVSWNSGALTSGVHTFPAVLQSSGLYSLSSVVTVPSSNFGTQTYTCNVDHKPSNTKVDKTVERKSCVECPPCPAPPVAGPSVFLFPPKPKDTLMISRTPEVTCVVVDVSHEDPEVQFNWYVDGVEVHNAKTKPREEQFNSTFRVVSVLTVVHQDWLNGKEYKCKVSNKGLPAPIEKTISKTKGQPREPQVYTLPPSREEMTKNQVSLTCLVKGFYPSDIAVEWESNGQPENNYKTTPPMLDSDGSFFLYSKLTVDKSRWQQGNVFSCSVMHEALHNHYTQKSLSLSPG light: not shown | – | 210 | 0.67 | 99 | 6.5 | 91 | 93 | 85 | 91 | 3 | 9.7 | 3.3 | 2.6 | 23.9 | 2200 | 310 | 2.9 | 6.2 nM and 8.3 nM | 0.0014 s⁻¹ and 0.0018 s⁻¹ | 220000 M⁻¹ s⁻¹ | MW Peak 2 (N-hCD73-his [2]): 150 kDa; MW Peak 2 (hCD73-his [10]): 3400 kDa
4 | CD73.10-IgG2-C219S-IgG1.1 (antibody, also called CD73.10-IgG2CS-IgG1.1f; CD73.10-Vh-hHC-IgG2-C219S-IgG1.1f) heavy: QVQLVESGGGVVQPGRSLRLSCAASGFTFSNYGMHWVRQAPGKGLEWVAVIWYDESNKYYPDSVKGRFTISRDNSKNTLYLQMNSLRAEDTAVYYCARGGSSWYPDSFDIWGQGTMVTVSSASTKGPSVFPLAPCSRSTSESTAALGCLVKDYFPEPVTVSWNSGALTSGVHTFPAVLQSSGLYSLSSVVTVPSSNFGTQTYTCNVDHKPSNTKVDKTVERKSCVECPPCPAPPVAGPSVFLFPPKPKDTLMISRTPEVTCVVVDVSHEDPEVKFNWYVDGVEVHNAKTKPREEQYNSTYRVVSVLTVLHQDWLNGKEYKCKVSNKALPSSIEKTISKAKGQPREPQVYTLPPSREEMTKNQVSLTCLVKGFYPSDIAVEWESNGQPENNYKTTPPMLDSDGSFFLYSKLTVDKSRWQQGNVFSCSVMHEALHNHYTQKSLSLSPG light: not shown | – | – | 0.87 | 99 | – | 91 | 92 | 87 | 91 | 3.1 | 9.4 | 4.3 | 3 | 25.6 | 2000 | 320 | – | 5.7 nM and 6.8 nM | 0.0014 s⁻¹ and 0.0016 s⁻¹ | 240000 M⁻¹ s⁻¹ and 230000 M⁻¹ s⁻¹ | MW Peak 3 (hCD73-his [7]): 390 kDa
5 | CD73.3-IgG1.1 (antibody, V domains shown, also called CD73.3-IgG1.1f; 3-Vh-hHC-IgG1.1f/4C3Vk1) VH: EVQLVESGGGLVQPGRSLRLSCAASGFTFDDYAMHWVRQAPGKGLEWVSGISWKSGSIGYADSVKGRFTISRDNAKNSLYLQMNSLRAEDTVLYYCVKGYYVILTGLDYWGQGTLVTVSS VL: not shown | – | 170 | – | – | 5.8 | – | -47 | – | – | – | – | – | – | – | – | – | 10.8 | – | – | – | MW Peak 2 (hCD73-his [10]): 530 kDa
